PMC4347646 (The Journal of Cell Biology, 2015)

Molecular target: T1, Rab13 Q67L (in the Rab13 biosensor) (human, UniProt P51153 1-203, Q67L)
T1 sequence: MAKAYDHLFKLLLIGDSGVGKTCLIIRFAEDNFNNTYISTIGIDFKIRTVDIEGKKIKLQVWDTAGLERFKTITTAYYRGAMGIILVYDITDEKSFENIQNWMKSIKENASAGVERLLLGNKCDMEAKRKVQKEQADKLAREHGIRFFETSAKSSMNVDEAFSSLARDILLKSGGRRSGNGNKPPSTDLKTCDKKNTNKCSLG
Assay: FRET or BRET

FRET/mCer ratio, higher than in the Rab13 T22N biosensor: 53%
B1: RBD of MICAL-L2 (in the Rab13 biosensor) (domain or fragment)
chain: not shown
